This note sets out measurements from patent US20080274950A1 (BABRAHAM INSTITUTE, published 2008).

Experiment [1] deals with T1, human N-cadherin naturally expressed on DX3 melanoma cells (human, UniProt P19022 160-906).
T1 construct: also called DX3 Cells; N-cadherin+ve DX3 melanoma cells
T1 sequence: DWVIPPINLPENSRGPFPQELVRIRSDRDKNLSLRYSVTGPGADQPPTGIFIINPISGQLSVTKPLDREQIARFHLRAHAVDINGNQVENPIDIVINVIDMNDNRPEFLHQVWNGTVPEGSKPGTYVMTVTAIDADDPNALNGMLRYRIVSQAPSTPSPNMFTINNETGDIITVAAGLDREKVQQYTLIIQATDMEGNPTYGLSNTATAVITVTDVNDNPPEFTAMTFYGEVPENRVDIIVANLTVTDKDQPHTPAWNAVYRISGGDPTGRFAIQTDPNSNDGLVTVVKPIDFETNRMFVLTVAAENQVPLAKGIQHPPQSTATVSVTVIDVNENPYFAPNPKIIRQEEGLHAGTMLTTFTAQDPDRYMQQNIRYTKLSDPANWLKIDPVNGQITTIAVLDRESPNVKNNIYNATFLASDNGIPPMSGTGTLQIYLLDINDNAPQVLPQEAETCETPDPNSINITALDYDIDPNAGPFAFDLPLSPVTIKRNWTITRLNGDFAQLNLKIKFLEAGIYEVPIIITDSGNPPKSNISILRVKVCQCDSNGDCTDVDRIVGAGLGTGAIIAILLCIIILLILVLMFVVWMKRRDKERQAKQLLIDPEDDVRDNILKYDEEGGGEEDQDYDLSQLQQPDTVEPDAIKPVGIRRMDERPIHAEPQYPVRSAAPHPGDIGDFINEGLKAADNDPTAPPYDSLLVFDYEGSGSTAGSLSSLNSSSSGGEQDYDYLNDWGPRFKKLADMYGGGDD
Put plainly: adhesion of DX3 cells to coated N-cadherin-Fc. On the procedure:
Monomeric or dimeric N-cadherin-Fc fusion protein in Cos cell supernatants was added as described for the ELISA assay. DX3 Cells, a human melanoma cell line which expresses N-cadherin, were dissociated with Cell Dissociation Solution (Sigma, code C5789), resuspended in HBSS with 2% FCS and assessed for adhesion to wild type or mutant N-cadherin-Fc as previously described (Corps et al., 2001). Microscopic examination established that the cells were present as a single cell suspension as they settled onto the plate. For assays conducted in reducing conditions, 10 mM DTT was present during the adhesion and washing steps. Determinations were conducted in triplicate and results are presented as mean +/−sem.

In experiment [2] the target is T2, mouse N-cadherin on L cells after removal of the prodomain with trypsin (mouse, UniProt P15116 160-906).
T2 construct: whole, on cells; Removal of the prodomain was almost complete by western blot; also called L cells after treatment; trypsin-treated L cell transfectants
T2 sequence (looked up): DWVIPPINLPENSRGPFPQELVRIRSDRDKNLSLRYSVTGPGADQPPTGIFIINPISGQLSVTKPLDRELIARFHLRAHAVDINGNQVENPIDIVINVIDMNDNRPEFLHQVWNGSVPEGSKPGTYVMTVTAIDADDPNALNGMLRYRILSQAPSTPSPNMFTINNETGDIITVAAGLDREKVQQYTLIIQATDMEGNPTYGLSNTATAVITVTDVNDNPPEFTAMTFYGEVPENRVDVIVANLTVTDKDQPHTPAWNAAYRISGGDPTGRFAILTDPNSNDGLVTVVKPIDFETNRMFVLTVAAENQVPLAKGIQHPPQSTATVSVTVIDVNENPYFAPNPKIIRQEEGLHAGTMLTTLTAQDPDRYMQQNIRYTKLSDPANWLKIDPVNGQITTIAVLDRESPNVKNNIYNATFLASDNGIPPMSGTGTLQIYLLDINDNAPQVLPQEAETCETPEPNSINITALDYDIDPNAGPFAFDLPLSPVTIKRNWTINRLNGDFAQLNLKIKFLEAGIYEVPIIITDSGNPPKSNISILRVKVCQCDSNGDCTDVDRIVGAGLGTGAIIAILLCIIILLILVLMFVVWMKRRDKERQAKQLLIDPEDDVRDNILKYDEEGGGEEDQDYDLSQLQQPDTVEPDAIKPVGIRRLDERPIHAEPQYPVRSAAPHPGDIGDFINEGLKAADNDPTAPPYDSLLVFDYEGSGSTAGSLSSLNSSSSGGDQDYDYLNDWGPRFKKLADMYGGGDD
The experiment in a line: adhesion of trypsin-treated L cell transfectants to coated N-cadherin Fc. As for the experimental part:
Adhesion tests were conducted substantially as described in Example 1. Briefly, K562 Cells or L cells transfected with wild type or mutant N-cadherin were allowed to settle for 45 minutes at 37° C. onto N-cadherin Fc fusion proteins coated at 1 μg/ml to a 96 well plate. Non-adherent cells were then washed off and residual adherent cells were quantitated by measuring acid phosphatase activity. Assays were conducted in quadruplicate and results are expressed as % cells adhering +/−SEM.
L cells expressing mouse N-cadherin with an uncleaved prodomain (see Koch et al., 2004) were obtained from Dr Weisong Shan (Montreal Neurological Institute). The normal furin cleavage site, RQKR, had been replaced with a Factor Xa site, IEGR, to give the correct N-terminus after digestion. […] L cells suspended in HBSS containing 0.1% BSA were treated with 0.01% trypsin (Sigma, Type XI) in the presence of 2 mM Ca²⁺ for 10 minutes at 37° C. and the digestion was then quenched with soyabean trypsin inhibitor, 0.5 mg per ml (Sigma, Type I-S). Cells were then washed and tested for adhesion to N-cadherin Fc-fusion protein. To check for complete removal of the prodomain, the cells were lysed in SDS sample buffer and the cadherin analysed by SDS PAGE under reducing conditions on a 4-12% gradient gel. […]

B1: wild type chicken N-cadherin-Fc fusion protein, dimeric (linked by disulphide bonds at the Ig hinge region) (Fc fusion, UniProt P10288 165-729, looked up)
chain: DWVIPPINLPENSRGPFPQELVRIRSDRDKSLSLRYSVTGPGADQPPTGIFIINPISGQLSVTKPLDREQIASFHLRAHAVDVNGNQVENPIDIVINVIDMNDNRPEFLHQVWNGTVPEGSKPGTYVMTVTAIDADDPNAQNGMLRYRILSQAPSSPSPNMFTINNETGDIITVAAGLDREKVQQYTLIIQATDMEGNPTYGLSNTATAVITVTDVNDNPPEFTAMTFYGEVPENRVDVIVANLTVTDKDQPHTPAWNARYQMTGGDPTGQFTILTDPNSNDGLVTVVKPIDFETNRMFVLTVAAENQVPLAKGIQHPPQSTATVSITVIDVNESPYFVPNPKLVRQEEGLLAGSMLTTFTARDPDRYMQQTSLRYSKLSDPANWLKIDPVNGQITTTAVLDRESIYVQNNMYNATFLASDNGIPPMSGTGTLQIYLLDINDNAPQVNPKEATTCETLQPNAINITAVDPDIDPNAGPFAFELPDSPPSIKRNWTIVRISGDHAQLSLRIRFLEAGIYDVPIVITDSGNPHASSTSVLKVKVCQCDINGDCTDVDRIVGAGLGTG
notes: extracellular domain; also called dimeric N-cadherin-Fc; wild type N-cadherin; not shown: hinge region, CH2 and CH3 domains of human IgG1 heavy chain (vector pIgSig)
As to B1, the binding result in experiment [1] and in experiment [2] was “binds” throughout.
